Source: patent US20240261333A1 (published 2024)

T1: HNRNPM (human, UniProt P52272 2-730)
T1 construct: also called NP_005959.2 (+1)
T1 sequence (looked up): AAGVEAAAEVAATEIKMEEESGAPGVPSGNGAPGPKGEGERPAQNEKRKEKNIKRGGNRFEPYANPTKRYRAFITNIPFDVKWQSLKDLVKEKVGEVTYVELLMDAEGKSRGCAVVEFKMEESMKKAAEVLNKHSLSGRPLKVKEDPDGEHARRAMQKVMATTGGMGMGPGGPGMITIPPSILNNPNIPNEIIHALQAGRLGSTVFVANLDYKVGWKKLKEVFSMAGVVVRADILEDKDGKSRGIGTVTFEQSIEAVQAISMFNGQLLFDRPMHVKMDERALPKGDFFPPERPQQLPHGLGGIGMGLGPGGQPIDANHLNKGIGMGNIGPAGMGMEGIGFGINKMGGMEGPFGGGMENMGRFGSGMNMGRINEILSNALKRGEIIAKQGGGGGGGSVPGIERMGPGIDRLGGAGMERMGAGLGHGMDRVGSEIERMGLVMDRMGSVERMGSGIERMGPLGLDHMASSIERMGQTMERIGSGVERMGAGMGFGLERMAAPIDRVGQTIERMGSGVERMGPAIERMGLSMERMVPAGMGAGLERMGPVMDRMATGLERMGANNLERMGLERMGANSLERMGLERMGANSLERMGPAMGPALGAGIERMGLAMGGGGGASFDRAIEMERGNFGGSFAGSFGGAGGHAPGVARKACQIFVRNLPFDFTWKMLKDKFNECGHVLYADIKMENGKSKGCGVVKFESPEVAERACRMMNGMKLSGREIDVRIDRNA

T2: TGM1 (human, UniProt P22735 1-817, limits assumed)
T2 construct: also called NP_000350.1
T2 sequence (looked up): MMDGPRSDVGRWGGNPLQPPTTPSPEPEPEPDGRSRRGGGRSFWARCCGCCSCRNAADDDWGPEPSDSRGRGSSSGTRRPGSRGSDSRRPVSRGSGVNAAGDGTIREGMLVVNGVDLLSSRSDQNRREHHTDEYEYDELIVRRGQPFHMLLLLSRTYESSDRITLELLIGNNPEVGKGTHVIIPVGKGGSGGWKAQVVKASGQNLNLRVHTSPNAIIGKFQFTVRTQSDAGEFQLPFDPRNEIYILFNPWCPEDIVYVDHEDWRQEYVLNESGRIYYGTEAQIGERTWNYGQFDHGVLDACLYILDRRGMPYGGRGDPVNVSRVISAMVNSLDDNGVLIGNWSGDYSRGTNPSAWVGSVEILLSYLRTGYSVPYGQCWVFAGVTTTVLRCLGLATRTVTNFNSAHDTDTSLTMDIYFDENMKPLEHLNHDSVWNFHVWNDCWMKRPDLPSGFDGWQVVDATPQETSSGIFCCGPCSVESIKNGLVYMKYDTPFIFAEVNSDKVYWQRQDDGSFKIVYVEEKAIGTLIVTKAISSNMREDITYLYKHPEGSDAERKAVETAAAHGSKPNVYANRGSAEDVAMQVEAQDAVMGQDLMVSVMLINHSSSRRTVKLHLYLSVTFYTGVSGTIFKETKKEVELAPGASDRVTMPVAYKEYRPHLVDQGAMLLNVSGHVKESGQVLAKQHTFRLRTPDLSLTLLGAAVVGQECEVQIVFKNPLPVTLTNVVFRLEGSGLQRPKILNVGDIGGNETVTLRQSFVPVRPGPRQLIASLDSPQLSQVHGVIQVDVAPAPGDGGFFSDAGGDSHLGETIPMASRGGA


Assays:
Assay in all cases: co-IP with anti-FLAG, N-FLAG B3GNT2, mass spectrometry
[1] = biological target: T1, HNRNPM
[2] = biological target: T3, PKM (human, UniProt P14618 2-531, limits assumed)
T3 construct: also called NP_001193725.1 (+3)

[3] = biological target: T4, SYNM (human, UniProt O15061 1-1565)
T4 construct: also called NP_663780.2

[4] = biological target: RPL23 (human, UniProt P62829 1-140)
[5] = biological target: T5, TPM3 (human, UniProt P06753-2 2-248)
T5 construct: also called NP_705935.1

[6] = biological target: T6, LAMC1 (human, UniProt P11047 34-1609)
T6 construct: also called NP_002284.3

[7] = biological target: T2, TGM1
[8] = biological target: T7, PRRC2C (human, UniProt Q9Y520-4 1-2817, limits assumed)
T7 construct: also called NP_055987.2 (+10)
T7 sequence (Q9Y520 other isoform, or with tags, fused parts or gaps limits assumed): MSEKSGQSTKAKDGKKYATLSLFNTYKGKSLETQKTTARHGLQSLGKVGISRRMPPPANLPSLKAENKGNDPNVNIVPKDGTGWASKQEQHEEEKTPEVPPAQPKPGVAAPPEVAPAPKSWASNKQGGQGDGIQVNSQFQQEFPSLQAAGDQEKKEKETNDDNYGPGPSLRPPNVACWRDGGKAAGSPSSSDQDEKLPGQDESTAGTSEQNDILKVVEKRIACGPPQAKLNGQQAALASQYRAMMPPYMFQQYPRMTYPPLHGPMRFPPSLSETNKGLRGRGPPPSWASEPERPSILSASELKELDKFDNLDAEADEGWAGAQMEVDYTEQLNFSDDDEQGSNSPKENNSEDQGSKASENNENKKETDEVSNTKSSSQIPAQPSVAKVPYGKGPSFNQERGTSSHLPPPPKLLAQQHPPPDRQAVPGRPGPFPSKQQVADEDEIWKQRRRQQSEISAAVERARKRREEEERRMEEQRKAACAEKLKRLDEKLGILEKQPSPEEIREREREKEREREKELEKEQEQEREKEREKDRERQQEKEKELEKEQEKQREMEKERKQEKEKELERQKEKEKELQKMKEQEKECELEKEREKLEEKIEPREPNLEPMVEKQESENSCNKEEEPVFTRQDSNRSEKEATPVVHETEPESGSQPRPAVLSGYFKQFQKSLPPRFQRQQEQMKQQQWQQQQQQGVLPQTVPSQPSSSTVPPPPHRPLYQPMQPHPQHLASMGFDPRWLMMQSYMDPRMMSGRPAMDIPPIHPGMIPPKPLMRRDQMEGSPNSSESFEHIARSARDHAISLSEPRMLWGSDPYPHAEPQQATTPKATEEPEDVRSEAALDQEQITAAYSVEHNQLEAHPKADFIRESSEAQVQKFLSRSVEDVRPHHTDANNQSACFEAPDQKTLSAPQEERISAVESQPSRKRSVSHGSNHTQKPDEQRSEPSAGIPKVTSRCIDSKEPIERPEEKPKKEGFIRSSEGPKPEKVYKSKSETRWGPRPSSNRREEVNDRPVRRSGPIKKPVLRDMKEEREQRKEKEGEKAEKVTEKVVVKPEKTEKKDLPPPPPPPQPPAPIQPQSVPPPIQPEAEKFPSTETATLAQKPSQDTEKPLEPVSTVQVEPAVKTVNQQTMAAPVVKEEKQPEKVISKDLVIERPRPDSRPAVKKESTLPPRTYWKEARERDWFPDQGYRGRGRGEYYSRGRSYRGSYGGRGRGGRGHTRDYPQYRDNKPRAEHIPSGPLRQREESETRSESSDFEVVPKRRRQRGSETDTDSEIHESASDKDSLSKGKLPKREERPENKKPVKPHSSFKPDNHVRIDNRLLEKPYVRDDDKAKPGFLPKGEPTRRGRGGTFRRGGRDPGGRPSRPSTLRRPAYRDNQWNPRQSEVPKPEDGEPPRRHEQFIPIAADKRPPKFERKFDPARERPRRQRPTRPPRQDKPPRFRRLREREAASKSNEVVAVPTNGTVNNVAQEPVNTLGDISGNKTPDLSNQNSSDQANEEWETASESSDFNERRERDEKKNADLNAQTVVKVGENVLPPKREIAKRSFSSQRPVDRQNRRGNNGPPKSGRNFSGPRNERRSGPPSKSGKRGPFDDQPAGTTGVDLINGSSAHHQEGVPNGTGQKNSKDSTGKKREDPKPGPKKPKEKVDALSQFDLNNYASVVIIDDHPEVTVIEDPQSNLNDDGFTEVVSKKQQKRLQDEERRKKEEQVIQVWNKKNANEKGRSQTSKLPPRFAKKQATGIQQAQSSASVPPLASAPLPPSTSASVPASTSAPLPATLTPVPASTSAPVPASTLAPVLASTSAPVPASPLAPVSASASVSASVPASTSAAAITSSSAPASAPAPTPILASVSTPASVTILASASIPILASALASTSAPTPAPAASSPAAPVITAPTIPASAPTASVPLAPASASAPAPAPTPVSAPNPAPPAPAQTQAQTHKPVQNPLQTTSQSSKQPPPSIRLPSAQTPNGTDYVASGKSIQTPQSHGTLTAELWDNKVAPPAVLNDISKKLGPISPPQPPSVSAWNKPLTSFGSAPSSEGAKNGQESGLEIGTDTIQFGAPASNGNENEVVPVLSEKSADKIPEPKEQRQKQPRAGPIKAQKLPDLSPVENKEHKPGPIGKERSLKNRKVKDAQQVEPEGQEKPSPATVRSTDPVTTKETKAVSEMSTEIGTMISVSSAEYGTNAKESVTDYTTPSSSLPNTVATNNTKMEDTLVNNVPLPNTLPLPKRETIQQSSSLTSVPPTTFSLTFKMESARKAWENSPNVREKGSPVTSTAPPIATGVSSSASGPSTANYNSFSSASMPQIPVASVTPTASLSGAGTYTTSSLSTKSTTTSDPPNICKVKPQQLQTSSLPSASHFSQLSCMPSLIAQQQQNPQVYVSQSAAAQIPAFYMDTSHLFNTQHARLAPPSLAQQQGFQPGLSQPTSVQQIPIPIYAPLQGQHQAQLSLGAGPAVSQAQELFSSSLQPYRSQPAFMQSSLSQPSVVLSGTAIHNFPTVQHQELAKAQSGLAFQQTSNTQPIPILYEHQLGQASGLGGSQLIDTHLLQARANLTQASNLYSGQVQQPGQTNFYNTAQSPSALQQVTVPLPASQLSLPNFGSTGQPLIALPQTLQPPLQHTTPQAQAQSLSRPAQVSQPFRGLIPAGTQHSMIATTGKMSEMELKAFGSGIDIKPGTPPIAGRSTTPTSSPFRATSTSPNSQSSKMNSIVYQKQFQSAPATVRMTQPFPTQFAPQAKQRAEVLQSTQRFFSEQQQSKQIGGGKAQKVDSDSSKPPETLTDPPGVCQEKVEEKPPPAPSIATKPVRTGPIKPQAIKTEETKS

T6 sequence (P11047 34-1609 limits assumed): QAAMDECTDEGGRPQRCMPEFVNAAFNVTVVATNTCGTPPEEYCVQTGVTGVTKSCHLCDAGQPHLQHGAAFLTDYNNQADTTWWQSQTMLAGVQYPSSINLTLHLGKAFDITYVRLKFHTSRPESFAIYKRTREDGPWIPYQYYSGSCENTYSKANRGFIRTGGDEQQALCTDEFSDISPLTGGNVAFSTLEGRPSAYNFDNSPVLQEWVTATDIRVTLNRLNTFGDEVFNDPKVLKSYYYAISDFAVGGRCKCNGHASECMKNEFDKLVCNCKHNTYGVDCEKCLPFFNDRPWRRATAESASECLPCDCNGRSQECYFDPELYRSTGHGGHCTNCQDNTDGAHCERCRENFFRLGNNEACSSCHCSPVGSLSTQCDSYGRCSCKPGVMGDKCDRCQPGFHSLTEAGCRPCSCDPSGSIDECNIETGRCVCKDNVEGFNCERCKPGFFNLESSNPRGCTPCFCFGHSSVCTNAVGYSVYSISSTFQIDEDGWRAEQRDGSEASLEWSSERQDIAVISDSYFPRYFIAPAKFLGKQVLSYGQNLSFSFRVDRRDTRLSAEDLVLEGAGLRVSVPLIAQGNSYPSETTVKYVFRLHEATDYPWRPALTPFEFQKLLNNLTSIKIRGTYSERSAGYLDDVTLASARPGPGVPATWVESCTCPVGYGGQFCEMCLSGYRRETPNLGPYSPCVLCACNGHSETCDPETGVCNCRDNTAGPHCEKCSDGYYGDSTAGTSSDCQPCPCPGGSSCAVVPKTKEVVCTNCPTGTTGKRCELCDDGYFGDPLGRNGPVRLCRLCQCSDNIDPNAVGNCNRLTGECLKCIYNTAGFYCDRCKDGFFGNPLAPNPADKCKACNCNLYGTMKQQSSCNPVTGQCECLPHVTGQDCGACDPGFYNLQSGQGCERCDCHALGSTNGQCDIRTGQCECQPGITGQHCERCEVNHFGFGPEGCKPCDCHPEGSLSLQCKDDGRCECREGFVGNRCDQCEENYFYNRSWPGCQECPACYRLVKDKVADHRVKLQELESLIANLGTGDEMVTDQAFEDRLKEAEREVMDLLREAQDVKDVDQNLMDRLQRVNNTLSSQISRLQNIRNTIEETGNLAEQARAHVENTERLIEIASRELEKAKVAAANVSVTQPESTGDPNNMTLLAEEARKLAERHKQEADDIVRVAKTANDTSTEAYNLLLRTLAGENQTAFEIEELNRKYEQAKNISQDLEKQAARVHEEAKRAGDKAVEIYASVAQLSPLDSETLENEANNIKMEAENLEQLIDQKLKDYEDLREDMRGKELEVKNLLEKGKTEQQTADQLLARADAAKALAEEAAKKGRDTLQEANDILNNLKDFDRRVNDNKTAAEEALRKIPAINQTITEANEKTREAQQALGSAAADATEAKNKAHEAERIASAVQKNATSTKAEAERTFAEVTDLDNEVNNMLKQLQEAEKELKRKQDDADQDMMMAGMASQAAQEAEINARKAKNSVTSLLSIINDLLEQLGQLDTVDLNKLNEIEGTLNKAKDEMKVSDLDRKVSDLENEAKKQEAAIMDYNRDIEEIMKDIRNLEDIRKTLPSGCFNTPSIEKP
T5 sequence (P06753 other isoform, or with tags, fused parts or gaps limits assumed): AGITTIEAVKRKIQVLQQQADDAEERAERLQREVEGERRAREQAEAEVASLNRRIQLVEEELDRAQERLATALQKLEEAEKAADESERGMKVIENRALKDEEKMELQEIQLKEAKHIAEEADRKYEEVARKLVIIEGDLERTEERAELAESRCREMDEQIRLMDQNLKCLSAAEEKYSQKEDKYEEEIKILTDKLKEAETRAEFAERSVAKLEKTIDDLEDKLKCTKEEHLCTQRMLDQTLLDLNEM

co-IP mass spectrometry count [1]	co-IP mass spectrometry count [2]	co-IP mass spectrometry count [3]	co-IP mass spectrometry count [4]	co-IP mass spectrometry count [5]	co-IP/MS count, N-term FLAG [6]	co-IP/MS count, N-term FLAG [7]	co-IP/MS count, N-term FLAG [8]	Binder
6	3	5	7	6	–	–	–	N-terminal FLAG tagged B3GNT2 (enzyme, human, UniProt Q9NY97 1-397, looked up, FLAG-tagged ORF overexpressed in cells; pulled down from lysate with mouse anti-FLAG; also called N-FLAG B3GNT2; N-term FLAG; not shown: N-terminal FLAG tag) MSVGRRRIKLLGILMMANVFIYFIMEVSKSSSQEKNGKGEVIIPKEKFWKISTPPEAYWNREQEKLNRQYNPILSMLTNQTGEAGRLSNISHLNYCEPDLRVTSVVTGFNNLPDRFKDFLLYLRCRNYSLLIDQPDKCAKKPFLLLAIKSLTPHFARRQAIRESWGQESNAGNQTVVRVFLLGQTPPEDNHPDLSDMLKFESEKHQDILMWNYRDTFFNLSLKEVLFLRWVSTSCPDTEFVFKGDDDVFVNTHHILNYLNSLSKTKAKDLFIGDVIHNAGPHRDKKLKYYIPEVVYSGLYPPYAGGGGFLYSGHLALRLYHITDQVHLYPIDDVYTGMCLQKLGLVPEKHKGFRTFDIEEKNKNNICSYVDLMLVHSRKPQEMIDIWSQLQSAHLKC
–	–	–	–	–	0	17	6	N-terminal FLAG tagged B3GNT2 (enzyme, human, UniProt Q9NY97 1-397, looked up, FLAG-tagged ORF overexpressed in A375 cells; pulled down from the lysate with mouse anti-FLAG; also called N-FLAG B3GNT2; N-term FLAG; not shown: N-terminal FLAG tag) MSVGRRRIKLLGILMMANVFIYFIMEVSKSSSQEKNGKGEVIIPKEKFWKISTPPEAYWNREQEKLNRQYNPILSMLTNQTGEAGRLSNISHLNYCEPDLRVTSVVTGFNNLPDRFKDFLLYLRCRNYSLLIDQPDKCAKKPFLLLAIKSLTPHFARRQAIRESWGQESNAGNQTVVRVFLLGQTPPEDNHPDLSDMLKFESEKHQDILMWNYRDTFFNLSLKEVLFLRWVSTSCPDTEFVFKGDDDVFVNTHHILNYLNSLSKTKAKDLFIGDVIHNAGPHRDKKLKYYIPEVVYSGLYPPYAGGGGFLYSGHLALRLYHITDQVHLYPIDDVYTGMCLQKLGLVPEKHKGFRTFDIEEKNKNNICSYVDLMLVHSRKPQEMIDIWSQLQSAHLKC
